Test results reported in US20250066452A1, “SYNTHETIC AMPHIPATHIC HELICAL PEPTIDES AND TREATMENT METHODS USING SYNTHETIC AMPHIPATHIC HELICAL PEPTIDES” (UNIVERSITY OF MARYLAND, BALTIMORE, priority 2022, published 2025).

Experiments:
[1] = target: T1, CD36 (Homo sapiens, UniProt P16671); assay: IL-8 in conditioned medium (ELISA) of CD36-expressing HEK293 cells after 20 hours incubation with CD36 ligands; format: cell-based; details: CD36-expressing HEK293 cells; increasing ligand concentrations; 20 hours (FIG. 8)
T1 construct: expressed in transfected cells; host or cells: HEK293
Method: (§1) Following 20 hours incubation of wild-type (WT) and CD36-expressing (CD36+) HEK293 cells with increasing concentrations of CD36 ligands, the IL-8 levels were determined in conditioned medium by ELISA.
Following 20 hours incubation of CD36-expressing cells with the indicated amounts of the ligands, the IL-8 levels were determined in conditioned medium.
(§2) To study this, the applicant conducted cell culture experiments using wildtype (WT) and CD36+ expressing (CD36+) HEK293 cells, treated with increasing amounts of CD36 ligands. Specifically, the ligands tested were the PAMP lipopolysaccharide (LPS) and the DAMPs high mobility group box 1 protein (HMGB1), Histone H3B, and heat shock protein 60 (HSP60). […] Similarly to HSP60, it is presumed that HSP70 and HSP90 also cause inflammation mediated by the CD36 receptor, and which may be alleviated by the disclosed peptides.
Additionally, the applicant studied the effects of the above-referenced SAHP L37pA as an inhibitor of CD36-dependent, PAMP/DAMP-induced pro-inflammatory response. See FIGS. 9(a)-9(c) To study this, the applicant conducted cell culture experiments using CD36+ HEK293 cells, treated with increasing amounts of CD36 ligands. […] As controls, no treatment, L37pA alone, and L3D alone were administered.
As controls, no treatment, L37pA alone, and L3D alone were administered. […]

[2] = system: wild-type (WT) HEK293 cells; assay: IL-8 in conditioned medium (ELISA) of wild-type HEK293 cells after 20 hours incubation with CD36 ligands; format: cell-based; details: wildtype HEK293 cells; increasing ligand concentrations; 20 hours (FIG. 8)
Method: as §1, §2

T1 sequence (P16671 whole entry): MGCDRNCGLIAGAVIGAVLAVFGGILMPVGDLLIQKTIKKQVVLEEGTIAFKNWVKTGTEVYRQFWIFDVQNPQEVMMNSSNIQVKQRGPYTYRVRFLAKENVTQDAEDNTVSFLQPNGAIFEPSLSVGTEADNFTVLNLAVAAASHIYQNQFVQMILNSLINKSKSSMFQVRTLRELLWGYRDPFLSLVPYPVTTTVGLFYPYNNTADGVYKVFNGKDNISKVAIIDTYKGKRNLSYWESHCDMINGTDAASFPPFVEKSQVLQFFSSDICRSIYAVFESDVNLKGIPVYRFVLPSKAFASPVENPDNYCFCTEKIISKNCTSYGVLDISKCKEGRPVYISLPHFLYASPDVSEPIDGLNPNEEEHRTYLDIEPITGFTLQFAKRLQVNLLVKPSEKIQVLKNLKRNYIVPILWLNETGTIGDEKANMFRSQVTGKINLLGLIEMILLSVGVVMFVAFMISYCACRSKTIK

B1: heat shock protein 60 (protein, UniProt P10809 27-573, looked up)
60 kDa heat shock protein, …: AKDVKFGADARALMLQGVDLLADAVAVTMGPKGRTVIIEQSWGSPKVTKDGVTVAKSIDLKDKYKNIGAKLVQDVANNTNEEAGDGTTTATVLARSIAKEGFEKISKGANPVEIRRGVMLAVDAVIAELKKQSKPVTTPEEIAQVATISANGDKEIGNIISDAMKKVGRKGVITVKDGKTLNDELEIIEGMKFDRGYISPYFINTSKGQKCEFQDAYVLLSEKKISSIQSIVPALEIANAHRKPLVIIAEDVDGEALSTLVLNRLKVGLQVVAVKAPGFGDNRKNQLKDMAIATGGAVFGEEGLTLNLEDVQPHDLGKVGEVIVTKDDAMLLKGKGDKAQIEKRIQEIIEQLDVTTSEYEKEKLNERLAKLSDGVAVLKVGGTSDVEVNEKKDRVTDALNATRAAVEEGIVLGGGCALLRCIPALDSLTPANEDQKIGIEIIKRTLKIPAMTIAKNAGVEGSLIVEKIMQSSSEVGYDAMAGDFVNMVEKGIIDPTKVVRTALLDAAGVASLLTTAEVVVTEIPKEEKDPGMGAMGGMGGGMGGGMF
notes: DAMP, CD36 ligand
- IL-8 produced by cells treated with the ligand [1]: significant amount of IL-8
- IL-8 produced by cells treated with the ligand [2]: minimal amount of interleukin 8
